Measurements as given in doi:10.1101/2020.07.31.231399.

How the values were obtained:
[1] = target: M. sp. JS623 type IV-B Csf2 (Cas7-like backbone subunit), N-terminally Strep-tagged (Mycobacterium sp. JS623); test: cryo-EM structure
[2] = target: M. sp. JS623 type IV-B Csf4 (Cas11 small subunit) (Mycobacterium sp. JS623); test: cryo-EM structure

Substance	stoichiometry N [1]	stoichiometry N [2]
M. sp. JS623 type IV-B Csf2 (Cas7-like backbone subunit), N-terminally Strep-tagged (natural protein)	7	
M. sp. JS623 type IV-B Csf4 (Cas11 small subunit) (natural protein)		5
